According to the supplement of paper PMC9112550, “Optimization of the antimicrobial peptide Bac7 by deep mutational scanning” (BMC Biology, 2022):

System: Escherichia coli TOP10
Assay: shrunken log2 fold change of peptide-encoding DNA abundance (4.5 h post-induction vs induction); higher = less antimicrobial activity (less host growth inhibition)
Conditions: time post-induction: 4.5 h; library: site-saturation at positions 5, 18, 19, 20
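Further: peptides expressed intracellularly from a pBAD plasmid library in pooled LB shake-flask culture, induced with 0.3% L-arabinose, DNA abundance read by NGS, three biological replicates, DESeq2 with apeglm shrinkage.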

Row | Sequence | shrunken log2 fold change
1 | RRIRKRPPRLPRPRPRPCKRPRP | -0.194
2 | RRIRWRPPRLPRPRPRPCGDPRP | 0.183
3 | RRIRWRPPRLPRPRPRPIRFPRP | -0.0926
4 | RRIRWRPPRLPRPRPRPTLLPRP | 0.104
5 | RRIRYRPPRLPRPRPRPLAMPRP | -0.311
6 | RRIRFRPPRLPRPRPRPKFKPRP | -0.238
7 | RRIRVRPPRLPRPRPRPYAIPRP | -0.033
8 | RRIRDRPPRLPRPRPRPRRPPRP | 0.652
9 | RRIRVRPPRLPRPRPRPMKFPRP | -0.124
10 | RRIRCRPPRLPRPRPRPAFVPRP | 0.179
11 | RRIRQRPPRLPRPRPRPGGEPRP | 0.218
12 | RRIRFRPPRLPRPRPRPMRAPRP | 1.02
13 | RRIRRRPPRLPRPRPRPLRFPRP | 0.836
14 | RRIRHRPPRLPRPRPRPSIGPRP | -0.335
15 | RRIRERPPRLPRPRPRPGMRPRP | 0.471
16 | RRIRGRPPRLPRPRPRPECVPRP | 1.72
17 | RRIRHRPPRLPRPRPRPDYLPRP | -0.998
18 | RRIRVRPPRLPRPRPRPMLWPRP | 0.0613
19 | RRIRRRPPRLPRPRPRPYECPRP | -0.0148
20 | RRIRWRPPRLPRPRPRPYMAPRP | -0.247
21 | RRIRMRPPRLPRPRPRPDSFPRP | -0.0586
22 | RRIRGRPPRLPRPRPRPKHSPRP | 0.209
23 | RRIRRRPPRLPRPRPRPTQGPRP | 0.935
24 | RRIRSRPPRLPRPRPRPGKAPRP | 0.188
25 | RRIRKRPPRLPRPRPRPMTCPRP | 0.0478

Row | Sequence | shrunken log2 fold change
26 | RRIRGRPPRLPRPRPRPNQIPRP | 0.109
27 | RRIRRRPPRLPRPRPRPRNNPRP | -0.204
28 | RRIRSRPPRLPRPRPRPVTSPRP | -0.132
29 | RRIRPRPPRLPRPRPRPSIRPRP | -0.306
30 | RRIRKRPPRLPRPRPRPCVIPRP | 0.0227
31 | RRIRFRPPRLPRPRPRPDEVPRP | -0.00705
32 | RRIRYRPPRLPRPRPRPTEEPRP | -0.2
33 | RRIRDRPPRLPRPRPRPTIPPRP | 0.0494
34 | RRIRWRPPRLPRPRPRPSNTPRP | -0.355
35 | RRIRFRPPRLPRPRPRPRVPPRP | 0.291
36 | RRIRNRPPRLPRPRPRPGLLPRP | -0.171
37 | RRIRRRPPRLPRPRPRPTIMPRP | 0.0494
38 | RRIRSRPPRLPRPRPRPDCWPRP | 0.362
39 | RRIRQRPPRLPRPRPRPSYPPRP | -0.857
40 | RRIRWRPPRLPRPRPRPNIGPRP | 0.138
41 | RRIRARPPRLPRPRPRPNKTPRP | -0.105
42 | RRIRARPPRLPRPRPRPFPSPRP | 0.131
43 | RRIRRRPPRLPRPRPRPDAYPRP | 0.249
44 | RRIRGRPPRLPRPRPRPKAQPRP | 1.27
45 | RRIRPRPPRLPRPRPRPFGNPRP | -0.146
46 | RRIRARPPRLPRPRPRPHMAPRP | -0.183
47 | RRIRNRPPRLPRPRPRPHIHPRP | -0.445
48 | RRIRARPPRLPRPRPRPKDGPRP | 0.298
49 | RRIRKRPPRLPRPRPRPIFTPRP | 0.118
50 | RRIRPRPPRLPRPRPRPSWIPRP | -0.179

Row | Sequence | shrunken log2 fold change
51 | RRIRLRPPRLPRPRPRPHRAPRP | -0.0697
52 | RRIRFRPPRLPRPRPRPTWWPRP | 0.494
53 | RRIRYRPPRLPRPRPRPSTVPRP | -0.0902
54 | RRIRIRPPRLPRPRPRPSSTPRP | -0.955
55 | RRIRLRPPRLPRPRPRPWVWPRP | -0.199
56 | RRIRMRPPRLPRPRPRPKDCPRP | -0.0772
57 | RRIRSRPPRLPRPRPRPCKWPRP | -0.053
58 | RRIRERPPRLPRPRPRPCACPRP | -0.78
59 | RRIRNRPPRLPRPRPRPTWEPRP | 0.102
60 | RRIRMRPPRLPRPRPRPQGPPRP | 0.246
61 | RRIRSRPPRLPRPRPRPYVAPRP | -0.402
62 | RRIRERPPRLPRPRPRPCVRPRP | -0.447
63 | RRIRFRPPRLPRPRPRPYCGPRP | -0.306
64 | RRIRWRPPRLPRPRPRPMHVPRP | 0.0255
65 | RRIRTRPPRLPRPRPRPMIVPRP | -0.158
66 | RRIRCRPPRLPRPRPRPRCIPRP | -0.29
67 | RRIRHRPPRLPRPRPRPQQNPRP | -0.0705
68 | RRIRLRPPRLPRPRPRPMYRPRP | 0.0136
69 | RRIRDRPPRLPRPRPRPELTPRP | 0.167
70 | RRIRWRPPRLPRPRPRPQYTPRP | -0.384
71 | RRIRERPPRLPRPRPRPSIMPRP | -1.02
72 | RRIRWRPPRLPRPRPRPMDLPRP | -0.214
73 | RRIRRRPPRLPRPRPRPTGAPRP | 0.633
74 | RRIRIRPPRLPRPRPRPKPCPRP | -0.0965
75 | RRIRPRPPRLPRPRPRPDQDPRP | 0.0461

Row | Sequence | shrunken log2 fold change
76 | RRIRHRPPRLPRPRPRPWMGPRP | -0.205
77 | RRIRIRPPRLPRPRPRPWNGPRP | -0.172
78 | RRIRARPPRLPRPRPRPLCFPRP | 0.195
79 | RRIRWRPPRLPRPRPRPMEAPRP | 0.0987
80 | RRIRHRPPRLPRPRPRPRHHPRP | -0.0639
81 | RRIRLRPPRLPRPRPRPDIYPRP | -0.458
82 | RRIRCRPPRLPRPRPRPCKKPRP | -0.205
83 | RRIRTRPPRLPRPRPRPEQTPRP | 0.303
84 | RRIRFRPPRLPRPRPRPKAYPRP | -0.436
85 | RRIRSRPPRLPRPRPRPMEIPRP | 0.014
86 | RRIRARPPRLPRPRPRPQIIPRP | 0.0561
87 | RRIRYRPPRLPRPRPRPSTPPRP | -0.24
88 | RRIRIRPPRLPRPRPRPWEKPRP | -0.00992
89 | RRIRWRPPRLPRPRPRPNTSPRP | -0.336
90 | RRIRSRPPRLPRPRPRPVLQPRP | 0.371
91 | RRIRPRPPRLPRPRPRPWDSPRP | -0.456
92 | RRIRNRPPRLPRPRPRPRMAPRP | 0.424
93 | RRIRLRPPRLPRPRPRPAKPPRP | 1.22
94 | RRIRKRPPRLPRPRPRPIAWPRP | 0.155
95 | RRIRCRPPRLPRPRPRPKIHPRP | -0.558
96 | RRIRWRPPRLPRPRPRPWMYPRP | -0.02
97 | RRIRDRPPRLPRPRPRPYKIPRP | -1.46
98 | RRIRHRPPRLPRPRPRPEPVPRP | 0.0556
99 | RRIRSRPPRLPRPRPRPHKQPRP | -0.0702
100 | RRIRNRPPRLPRPRPRPMCAPRP | -0.253

Row | Sequence | shrunken log2 fold change
101 | RRIRRRPPRLPRPRPRPFDRPRP | 0.542
102 | RRIRDRPPRLPRPRPRPEAHPRP | -0.00146
103 | RRIRARPPRLPRPRPRPNNKPRP | -0.29
104 | RRIRFRPPRLPRPRPRPDAAPRP | 0.681
105 | RRIRQRPPRLPRPRPRPEHRPRP | -0.271
106 | RRIRKRPPRLPRPRPRPFSDPRP | 0.0546
107 | RRIRSRPPRLPRPRPRPNYCPRP | -0.352
108 | RRIRRRPPRLPRPRPRPPDMPRP | 0.432
109 | RRIRQRPPRLPRPRPRPFHIPRP | -1.55
110 | RRIRERPPRLPRPRPRPEYIPRP | -0.177
111 | RRIRTRPPRLPRPRPRPPSLPRP | -0.11
112 | RRIRQRPPRLPRPRPRPDASPRP | 0.0949
113 | RRIRNRPPRLPRPRPRPVFLPRP | -0.215
114 | RRIRKRPPRLPRPRPRPDTGPRP | -0.0244
115 | RRIRHRPPRLPRPRPRPLFWPRP | 0.274
116 | RRIRFRPPRLPRPRPRPSRIPRP | -0.119
117 | RRIRTRPPRLPRPRPRPHSLPRP | 0.0291
118 | RRIRKRPPRLPRPRPRPYNDPRP | -0.00691
119 | RRIRCRPPRLPRPRPRPSSQPRP | -0.377
120 | RRIRSRPPRLPRPRPRPGVGPRP | 0.617
121 | RRIRHRPPRLPRPRPRPAVGPRP | 0.11
122 | RRIRQRPPRLPRPRPRPAMLPRP | 0.0266
123 | RRIRVRPPRLPRPRPRPVLLPRP | -0.35
124 | RRIRTRPPRLPRPRPRPMAWPRP | 0.114
125 | RRIRNRPPRLPRPRPRPVGEPRP | 0.112

Row | Sequence | shrunken log2 fold change
126 | RRIRMRPPRLPRPRPRPRARPRP | 1.67
127 | RRIRQRPPRLPRPRPRPICMPRP | -0.0553
128 | RRIRWRPPRLPRPRPRPPNPPRP | 0.878
129 | RRIRYRPPRLPRPRPRPTMTPRP | -0.859
130 | RRIRARPPRLPRPRPRPWSLPRP | -0.181
131 | RRIRIRPPRLPRPRPRPEVQPRP | -0.022
132 | RRIRNRPPRLPRPRPRPYLWPRP | -0.23
133 | RRIRLRPPRLPRPRPRPAAQPRP | 1.25
134 | RRIRNRPPRLPRPRPRPTTPPRP | 0.152
135 | RRIRCRPPRLPRPRPRPHHTPRP | -1.04
136 | RRIRRRPPRLPRPRPRPVNNPRP | -0.12
137 | RRIRGRPPRLPRPRPRPNCYPRP | 0.183
138 | RRIRPRPPRLPRPRPRPKQSPRP | 0.142
139 | RRIRSRPPRLPRPRPRPTPEPRP | 0.866
140 | RRIRWRPPRLPRPRPRPGCVPRP | 0.607
141 | RRIRHRPPRLPRPRPRPSHRPRP | -0.548
142 | RRIRMRPPRLPRPRPRPEIGPRP | 2.62
143 | RRIRDRPPRLPRPRPRPWVGPRP | 0.0332
144 | RRIRKRPPRLPRPRPRPMVGPRP | 0.0659
145 | RRIRMRPPRLPRPRPRPGDIPRP | 0.025
146 | RRIRKRPPRLPRPRPRPTNGPRP | 0.0599
147 | RRIRERPPRLPRPRPRPNCDPRP | -0.261
148 | RRIRIRPPRLPRPRPRPARQPRP | -0.0037
149 | RRIRDRPPRLPRPRPRPMRCPRP | 0.147
150 | RRIRRRPPRLPRPRPRPGEVPRP | 1.28
